Reference: US20050025760A1 (KEIO UNIVERSITY, published 2005)

Assays:
Assay in all cases: immunoprecipitation of point-mutated molecules (FIG. 5)
[1] = biological target: T1, Dsg3-M4 (human, UniProt P32926 50-615, E70V; S73F)
T1 construct: extracellular domain; also called point-mutated human Dsg3 molecule M4; not shown: His tag of vector pEVmod-His
T1 sequence (looked up): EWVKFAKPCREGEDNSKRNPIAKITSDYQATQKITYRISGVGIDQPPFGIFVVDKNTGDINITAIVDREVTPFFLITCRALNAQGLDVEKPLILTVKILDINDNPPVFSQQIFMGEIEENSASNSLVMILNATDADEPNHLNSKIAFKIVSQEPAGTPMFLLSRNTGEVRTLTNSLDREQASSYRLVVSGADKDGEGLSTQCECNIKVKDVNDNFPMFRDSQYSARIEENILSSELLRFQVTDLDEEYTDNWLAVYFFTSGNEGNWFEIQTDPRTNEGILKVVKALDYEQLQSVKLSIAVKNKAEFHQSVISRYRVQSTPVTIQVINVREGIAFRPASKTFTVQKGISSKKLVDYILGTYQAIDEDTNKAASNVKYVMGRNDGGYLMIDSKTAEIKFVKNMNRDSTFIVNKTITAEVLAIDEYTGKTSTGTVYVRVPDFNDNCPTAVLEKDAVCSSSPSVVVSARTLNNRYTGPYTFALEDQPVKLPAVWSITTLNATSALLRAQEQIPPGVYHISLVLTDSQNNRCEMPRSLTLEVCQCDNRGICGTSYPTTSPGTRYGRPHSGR

[2] = biological target: T2, Dsg3-M5 (human, UniProt P32926 50-615, L75I; T77Y)
T2 construct: extracellular domain; also called point-mutated human Dsg3 molecule M5; not shown: His tag of vector pEVmod-His
T2 sequence (looked up): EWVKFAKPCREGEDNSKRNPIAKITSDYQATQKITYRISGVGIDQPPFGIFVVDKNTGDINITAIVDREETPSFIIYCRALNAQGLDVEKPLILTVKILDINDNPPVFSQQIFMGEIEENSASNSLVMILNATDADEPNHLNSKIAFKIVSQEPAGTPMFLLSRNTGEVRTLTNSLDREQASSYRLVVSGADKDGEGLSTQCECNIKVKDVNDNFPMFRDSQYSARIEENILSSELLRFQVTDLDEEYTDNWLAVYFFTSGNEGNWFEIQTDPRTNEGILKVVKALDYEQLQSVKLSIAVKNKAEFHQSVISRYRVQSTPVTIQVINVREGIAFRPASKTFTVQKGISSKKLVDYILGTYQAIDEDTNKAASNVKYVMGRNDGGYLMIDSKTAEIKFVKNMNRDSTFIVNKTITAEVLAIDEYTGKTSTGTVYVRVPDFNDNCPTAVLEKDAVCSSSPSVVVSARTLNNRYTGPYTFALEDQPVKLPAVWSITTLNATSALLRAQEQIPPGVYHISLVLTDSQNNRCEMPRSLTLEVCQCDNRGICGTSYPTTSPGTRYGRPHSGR

[3] = biological target: T3, Dsg3-M3 (human, UniProt P32926 50-615, V53I; D54N; K55Q; N56K)
T3 construct: extracellular domain; also called point-mutated human Dsg3 molecule M3; not shown: His tag of vector pEVmod-His
T3 sequence (looked up): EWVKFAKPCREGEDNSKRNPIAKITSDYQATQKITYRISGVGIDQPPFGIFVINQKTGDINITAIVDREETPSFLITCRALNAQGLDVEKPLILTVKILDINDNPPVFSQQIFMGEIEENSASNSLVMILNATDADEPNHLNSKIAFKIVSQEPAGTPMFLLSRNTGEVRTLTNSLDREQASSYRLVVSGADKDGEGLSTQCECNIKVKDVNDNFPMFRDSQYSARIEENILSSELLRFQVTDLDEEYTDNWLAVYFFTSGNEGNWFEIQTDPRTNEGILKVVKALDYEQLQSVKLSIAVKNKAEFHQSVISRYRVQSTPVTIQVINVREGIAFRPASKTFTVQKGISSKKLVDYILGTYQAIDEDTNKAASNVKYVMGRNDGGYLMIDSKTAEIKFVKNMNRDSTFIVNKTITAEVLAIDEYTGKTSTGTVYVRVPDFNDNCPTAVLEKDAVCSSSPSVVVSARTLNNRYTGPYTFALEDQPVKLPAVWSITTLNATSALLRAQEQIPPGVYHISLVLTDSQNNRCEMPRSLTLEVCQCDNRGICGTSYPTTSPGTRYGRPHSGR

[4] = biological target: T4, Dsg1-M7 (human, UniProt Q02413 50-545, I3V; A7K; A8P)
T4 construct: extracellular domain; also called hDsg1-M7
T4 sequence (looked up): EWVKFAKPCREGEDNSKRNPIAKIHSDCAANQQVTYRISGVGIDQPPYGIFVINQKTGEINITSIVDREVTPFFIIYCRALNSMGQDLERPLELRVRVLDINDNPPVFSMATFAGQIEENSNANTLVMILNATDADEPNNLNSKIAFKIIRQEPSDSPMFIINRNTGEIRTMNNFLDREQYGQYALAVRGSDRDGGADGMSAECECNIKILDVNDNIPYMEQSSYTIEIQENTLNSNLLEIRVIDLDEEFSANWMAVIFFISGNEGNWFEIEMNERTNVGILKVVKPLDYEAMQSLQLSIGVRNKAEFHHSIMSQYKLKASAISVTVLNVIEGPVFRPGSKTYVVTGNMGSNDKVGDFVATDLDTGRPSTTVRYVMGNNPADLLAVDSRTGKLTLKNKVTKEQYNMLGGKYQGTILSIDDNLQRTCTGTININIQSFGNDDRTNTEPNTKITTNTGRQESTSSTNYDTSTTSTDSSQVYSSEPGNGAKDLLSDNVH

- binding result [1]: binds
- binding result [2]: binds
- binding result [3]: binds
- binding result [4]: no binding
B1: anti-Dsg3 monoclonal antibody AK23 (antibody, mouse IgG1, V domains shown)
VH: QVQLQQSGTELVKPGASVKLSCKSSGYTFTSYWINWVKQRPGQGLEWIGNINPSNGGINYNEKFKSKATLTVDKSSSTAYMQLKSLTSEDSAVYYCARGGYDGYPWGQGTTVTVS
VL: DIQMTQSPKFLLVSAGDRVTITCKASQSVSYDVAWYQQKPGQSPKLLISYASNRYTGVPDRFTGSGYGSDFTFTISTVQTEDLAVYFCQQDYSSPWTFGGGTKLELKR
notes: Mouse IgG1 kappa hybridoma antibody
